Columns and labels:
[1] = target: E303A mutant of Emp46p^CC (yeast) (UniProt Q12396); test: cross-linking; dimethyl suberimidate (DMS) 0.1 mg/mL, 60 or 120 min, room temperature, 100 mM carbonate/bicarbonate buffer pH 8.9; SDS-PAGE
[2] = target: coiled-coil segment of Emp47p, Emp47p^CC (254–374) (yeast) (UniProt P43555); test: native MS; nanoflow electrospray under non-denaturing conditions, 200 mM ammonium acetate pH 7.4; single proteins 43 uM; mixtures of Emp47p^CC 33 uM with 17, 33 and 67 uM Emp46p^CC, 25 °C, 30 min
[3] = target: the molecule itself; test: native MS; mass spectra under non-denaturing conditions measured at pH 5.0; Emp47p^CC fixed, Emp46p^CC varied
[4] = target: the molecule itself; test: SEC; Superose 12 gel filtration; Emp47p^CC 70 uM alone or with Emp46p^CC or its E303A mutant; 10 mM phosphate buffer pH 7.4, 150 mM NaCl

Row | stoichiometry N [1] | stoichiometry N (Emp46p^CC per Emp47p^CC (printed as 1:3)) [2] | Molecule | stoichiometry N [3] | stoichiometry N [4]
1 | 2 | 0.33 | E303A mutant of Emp46p^CC (from UniProt Q12396 252-355) (domain or fragment) | – | –
2 | – | – | coiled-coil segment of Emp46p, Emp46p^CC (252–355) (domain or fragment, yeast, UniProt Q12396 298-401, looked up, Emp46p, yeast putative cargo receptor, coiled-coil segment, residues 252-355; Monomer-dimer equilibrium by SV-AUC and native MS; also called wild-type Emp46p^CC; source: E. coli BL21-CodonPlus, purified (Chelating Sepharose, tag cleaved, gel filtration)) EESFREKMPFSDKEESITSNELFEKMNKLEGKIMANDIDPLLRKMNKIVENERELIQRLRPLLDLKKTAISDDSFQDFLSMNANLDRLIKEQEKIRQDAKLYGK | 2 | –
3 | – | – | coiled-coil segment of Emp47p, Emp47p^CC (254–374) (domain or fragment, yeast, UniProt P43555 282-402, looked up, Emp47p, yeast putative cargo receptor, coiled-coil segment, residues 254-374 by the methods (the results print 271–274); in mixtures with Emp46p^CC it forms 1:3 and 2:2 heterotetramers; the results print (271–274); also called Emp47^CC; source: E. coli BL21-CodonPlus, purified (Chelating Sepharose, tag cleaved, gel filtration)) GKEKLIEKTAFDADKDKITNYELYKKLDRVEGKILANDINALETKLNDVIKVQQELLSFMTTITKQLSSKPPANNEKGTSTDDAIAEDKENFKDFLSINQKLEKVLVEQEKYREATKRHGQ | 3 | 4
